Key:
[1] = target: allophycocyanin (AP) core cylinders of the Synechocystis phycobilisome
[2] = target: allophycocyanin (AP) core cylinders of the Synechocystis phycobilisome; remark: listed apart in the source
[3] = target: allophycocyanin (AP) core cylinders of the Synechocystis phycobilisome; remark: listed apart in the source
[4] = target: CpcA, α-subunit of phycocyanin (Synechocystis sp. PCC 6803); assay: densitometry of Zn-chromophore fluorescence bands of affinity-eluted proteins

Row | Substance | Chl a fluorescence yield normalized to Chl, relative to Δcpc (relative to Δcpc (=1.0)) [1] | kII of PSII photochemistry minus the kII of Δcpc, 620 nm actinic light, 12 µM DCMU [1] | Chl a fluorescence yield at 700 nm, normalized to [Chl], relative to Δcpc (relative to Δcpc (=1.00)) [2] | rate constant kII of PSII photochemistry, 620 nm actinic light, DCMU-treated intact cells [3] | CpcB/CpcA Zn-chromophore fluorescence ratio in the eluted fraction [4]
1 | (α,β*TTFC)3CpcG1*IFN heterohexameric complex | 1.45 | 13.4 % of WT | – | – | –
2 | (α,β*IFN)3CpcG heterohexameric complex | – | – | 1.84 | 1.46 fold of Δcpc | –
3 | (α,β*)3CpcG heterohexameric complex | – | – | 1.74 | 1.57 fold of Δcpc | –
4 | (α,β*TTFC)3CpcG heterohexameric complex | – | – | 1.66 | 1.39 fold of Δcpc | –
5 | (α,β)3CpcG1*IFN complex | 1.55 | 22.4 % of WT | – | – | –
6 | CpcB*S7*6xHis*tev*TTFC fusion protein | – | – | – | – | 1.4
